Assay results: the RNAGym collection of RNA variant scans (doi:10.7554/elife.80360)

B1: Twister Ribozyme (parent)
chain: AACACUGCCAAUGCCGGUCCCAAGCCCGGAUAAAAGUGGAGGGGGCGG

Variants of: B1
Experiment: self-cleavage, relative activity (ratio to wild type); higher = more cleavage; co-transcriptional

Row | Variant | self-cleavage
1 | AACACUGCCAAUGCCGGUCCCAAGCCCGGAUAAAAGUGGAGGGAUCGG [G44A G45U] | 1.11
2 | AACACUGCCAAUGCCGGUCCCAAGCCCGGAUAAAAGUGGAUGGGGCGA [G41U G48A] | 0.401
3 | AACACUGCCAAUGCCGGUCCCAAGCCCGGAUAAAAGUGGACGGGGCGU [G41C G48U] | 0.288
4 | AACACUGCCAAUGCCGGUCCCAAGCCCGGAUAAAAGUGGACGGGGCGA [G41C G48A] | 0.234
5 | AACACUGCCAAUGCCGGUCCCAAGCCCGGAUAAAAGUGGACGGGGCGC [G41C G48C] | 0.332
6 | AACACUGCCAAUGCCGGUCCCAAGCCCGGAUAAAAGUGGAGGCGGUGG [G43C C46U] | 0.214
7 | AACACUGCCAAUGCCGGUCCCAAGCCCGGAUAAAAGUGGAGGGAGGGG [G44A C46G] | 0.895
8 | AACACUGCCAAUGCCGGUCCCAAGCCCGGAUAAAAGUGGAGGGAGAGG [G44A C46A] | 0.878
9 | AACACUGCCAAUGCCGGUCCCAAGCCCGGAUAAAAGUGGAGGGAGUGG [G44A C46U] | 0.988
10 | AACACUGCCAAUGCCGGUCCCAAGCCCGGAUAAAAGUGGAGGGGACGC [G45A G48C] | 1.02
11 | AACACUGCCAAUGCCGGUCCCAAGCCCGGAUAAAAGUGGAGUAGGCGG [G42U G43A] | 0.129
12 | AACACUGCCAAUGCCGGUCCCAAGCCCGGAUAAAAGUGGAUGGUGCGG [G41U G44U] | 0.193
13 | AACACUGCCAAUGCCGGUCCCAAGCCCGGAUAAAAGUGGAUGGAGCGG [G41U G44A] | 0.403
14 | AACACUGCCAAUGCCGGUCCCAAGCCCGGAUAAAAGUGGAGGGGCCGA [G45C G48A] | 0.628
15 | AACACUGCCAAUGCCGGUCCCAAGCCCGGAUAAAAGUGGAGGGGCCGC [G45C G48C] | 0.89
16 | AACACUGCCAAUGCCGGUCCCAAGCCCGGAUAAAAGUGGAAGGGGCGA [G41A G48A] | 0.332
17 | AACACUGCCAAUGCCGGUCCCAAGCCCGGAUAAAAGUGGAAGGGGCGC [G41A G48C] | 0.535
18 | AACACUGCCAAUGCCGGUCCCAAGCCCGGAUAAAAGUGGGGGAGGCGG [A40G G43A] | 0.147
19 | AACACUGCCAAUGCCGGUCCCAAGCCCGGAUAAAAGUGGAGGCGGCGA [G43C G48A] | 0.198
20 | AACACUGCCAAUGCCGGUCCCAAGCCCGGAUAAAAGUGGAGGCGGCGC [G43C G48C] | 0.219
21 | AACACUGCCAAUGCCGGUCCCAAGCCCGGAUAAAAGUGGUGUGGGCGG [A40U G42U] | 0.15
22 | AACACUGCCAAUGCCGGUCCCAAGCCCGGAUAAAAGUGGGCGGGGCGG [A40G G41C] | 0.133
23 | AACACUGCCAAUGCCGGUCCCAAGCCCGGAUAAAAGUGGUAGGGGCGG [A40U G41A] | 0.142
24 | AACACUGCCAAUGCCGGUCCCAAGCCCGGAUAAAAGUGGUGGGCGCGG [A40U G44C] | 0.178
25 | AACACUGCCAAUGCCGGUCCCAAGCCCGGAUAAAAGUGGUGGGAGCGG [A40U G44A] | 0.155
26 | AACACUGCCAAUGCCGGUCCCAAGCCCGGAUAAAAGUGGAGGGCUCGG [G44C G45U] | 0.483
27 | AACACUGCCAAUGCCGGUCCCAAGCCCGGAUAAAAGUGGAGGGCCCGG [G44C G45C] | 0.54

Row | Variant | self-cleavage
28 | AACACUGCCAAUGCCGGUCCCAAGCCCGGAUAAAAGUGGGGUGGGCGG [A40G G42U] | 0.172
29 | AACACUGCCAAUGCCGGUCCCAAGCCCGGAUAAAAGUGGAAGAGGCGG [G41A G43A] | 0.171
30 | AACACUGCCAAUGCCGGUCCCAAGCCCGGAUAAAAGUGGAGGAGGAGG [G43A C46A] | 0.334
31 | AACACUGCCAAUGCCGGUCCCAAGCCCGGAUAAAAGUGGAGCAGGCGG [G42C G43A] | 0.139
32 | AACACUGCCAAUGCCGGUCCCAAGCCCGGAUAAAAGUGGACGGGGCCG [G41C G47C] | 0.162
33 | AACACUGCCAAUGCCGGUCCCAAGCCCGGAUAAAAGUGGACGGGGCAG [G41C G47A] | 0.235
34 | AACACUGCCAAUGCCGGUCCCAAGCCCGGAUAAAAGUGGGGGGGGCGC [A40G G48C] | 0.14
35 | AACACUGCCAAUGCCGGUCCCAAGCCCGGAUAAAAGUGGGGGGGGCGA [A40G G48A] | 0.193
36 | AACACUGCCAAUGCCGGUCCCAAGCCCGGAUAAAAGUGGGGGGGGCUG [A40G G47U] | 0.143
37 | AACACUGCCAAUGCCGGUCCCAAGCCCGGAUAAAAGUGGAGCGGGCGA [G42C G48A] | 0.516
38 | AACACUGCCAAUGCCGGUCCCAAGCCCGGAUAAAAGUGGAGCGGGCGC [G42C G48C] | 0.606
39 | AACACUGCCAAUGCCGGUCCCAAGCCCGGAUAAAAGUGGAGCGGUCGG [G42C G45U] | 0.164
40 | AACACUGCCAAUGCCGGUCCCAAGCCCGGAUAAAAGUGGAGGAGCCGG [G43A G45C] | 0.434
41 | AACACUGCCAAUGCCGGUCCCAAGCCCGGAUAAAAGUGGAGGGUGCGA [G44U G48A] | 0.717
42 | AACACUGCCAAUGCCGGUCCCAAGCCCGGAUAAAAGUGGAGUGGGCAG [G42U G47A] | 0.242
43 | AACACUGCCAAUGCCGGUCCCAAGCCCGGAUAAAAGUGGAGAGGACGG [G42A G45A] | 0.422
44 | AACACUGCCAAUGCCGGUCCCAAGCCCGGAUAAAAGUGGAGCGUGCGG [G42C G44U] | 0.162
45 | AACACUGCCAAUGCCGGUCCCAAGCCCGGAUAAAAGUGGACGAGGCGG [G41C G43A] | 0.141
46 | AACACUGCCAAUGCCGGUCCCAAGCCCGGAUAAAAGUGGACGCGGCGG [G41C G43C] | 0.148
47 | AACACUGCCAAUGCCGGUCCCAAGCCCGGAUAAAAGUGGACGUGGCGG [G41C G43U] | 0.153
48 | AACACUGCCAAUGCCGGUCCCAAGCCCGGAUAAAAGUGGAGGGCGCAG [G44C G47A] | 0.371
49 | AACACUGCCAAUGCCGGUCCCAAGCCCGGAUAAAAGUGGAGGGCGCCG [G44C G47C] | 0.353
50 | AACACUGCCAAUGCCGGUCCCAAGCCCGGAUAAAAGUGGUGGGGGCGG [A40U] | 0.158
51 | AACACUGCCAAUGCCGGUCCCAAGCCCGGAUAAAAGUGGUGGGGGCUG [A40U G47U] | 0.12
52 | AACACUGCCAAUGCCGGUCCCAAGCCCGGAUAAAAGUGGUGGGGGCCG [A40U G47C] | 0.142
53 | AACACUGCCAAUGCCGGUCCCAAGCCCGGAUAAAAGUGGACGGGGUGG [G41C C46U] | 0.282
54 | AACACUGCCAAUGCCGGUCCCAAGCCCGGAUAAAAGUGGAGGAGGCAG [G43A G47A] | 0.237
